B1: Azoarcus group I ribozyme (parent)
chain: GUGCCUUGCGCCGGGAAACCACGCAAGGGAUGGUGUCAAAUUCGGCGAAACCUAAGCGCCCGCCCGGGCGUAUGGCAACGCCGAGCCAAGCUUCGGCGCCUGCGCCGAUGAAGGUGUAGAGACUAGACGGCACCCACCUAAGGCAAACGCUAUGGUGAAGGCAUAGUCCAGGGAGUGGCGAAAGUCACACAAACCGG

Variants of: B1
Test: reverse-splicing fitness (ratio to wild type); higher = more active; in vitro selection; Mg2+ level not given
Outline: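 An in vitro group I ribozyme library with randomized positions was T7-transcribed and gel-purified. In triplicate, 10 pmol RNA in EPPS pH 7.5 was reacted with 50 pmoles of a 30-nt RNA substrate for 1 h at 37 °C across several added MgCl2 levels (1–48 mM), then stopped with EDTA. Products were reverse transcribed from a substrate-complementary primer, PCR-amplified and sequenced (HiSeq 4000). Fitness is a variant's read proportion after selection over that before, normalised to wild type.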

Going from C82G A111C A120G A145U U176C to C82G A111C A120G A145U U176G, the reverse-splicing fitness falls from 0.0232 to 0.00575.

First: C82G A111C A120G C150A
Second: C82G A111C A120G C150A C169A
The reverse-splicing fitness of the first is lower: 0.0103 for the first, 0.0116 for the second.

Going from C82G A111C A120G C150A C169A U176A to C82G A111C A120G C150A C169A U176C, the reverse-splicing fitness rises from 0.0179 to 0.0214.

Compared with C82G A111C A120G C150A C169A U176G, C82G A111C A120G C150A C169G is higher in reverse-splicing fitness: 0.00716 for the first, 0.00935 for the second.

First: C82G A111C A120G C150A C169G U176A
Second: C82G A111C A120G C150A C169G U176C
The reverse-splicing fitness of the first is lower: 0.0195 for the first, 0.025 for the second.

Going from C82G A111C A120G C150A C169G U176G to C82G A111C A120G C150A C169U, the reverse-splicing fitness rises from 0.00569 to 0.00859.

Compared with C82G A111C A120G C150A C169U U176A, C82G A111C A120G C150A C169U U176C is lower in reverse-splicing fitness: 0.022 for the first, 0.0171 for the second.

Compared with C82G A111C A120G C150A C169U U176G, C82G A111C A120G C150A U176A is higher in reverse-splicing fitness: 0.00512 for the first, 0.014 for the second.

First: C82G A111C A120G C150A U176C
Second: C82G A111C A120G C150A U176G
The reverse-splicing fitness of the first is higher: 0.0193 for the first, 0.0081 for the second.

First: C82G A111C A120G C150G
Second: C82G A111C A120G C150G C169A
The reverse-splicing fitness of the first is lower: 0.00691 for the first, 0.00888 for the second.

First: C82G A111C A120G C150G C169A U176A
Second: C82G A111C A120G C150G C169A U176C
The reverse-splicing fitness of the first is lower: 0.00915 for the first, 0.0102 for the second.

First: C82G A111C A120G C150G C169A U176G
Second: C82G A111C A120G C150G C169G
The reverse-splicing fitness of the first is lower: 0.00686 for the first, 0.00781 for the second.

Compared with C82G A111C A120G C150G C169G U176A, C82G A111C A120G C150G C169G U176C is lower in reverse-splicing fitness: 0.00677 for the first, 0.00508 for the second.

First: C82G A111C A120G C150G C169G U176G
Second: C82G A111C A120G C150G C169U
The reverse-splicing fitness of the first is lower: 0.00467 for the first, 0.00835 for the second.

First: C82G A111C A120G C150G C169U U176A
Second: C82G A111C A120G C150G C169U U176C
The reverse-splicing fitness of the first is lower: 0.0081 for the first, 0.0132 for the second.

Going from C82G A111C A120G C150G C169U U176G to C82G A111C A120G C150G U176A, the reverse-splicing fitness rises from 0.00589 to 0.00843.

Compared with C82G A111C A120G C150G U176C, C82G A111C A120G C150G U176G is lower in reverse-splicing fitness: 0.0153 for the first, 0.00284 for the second.

Compared with C82G A111C A120G C150U, C82G A111C A120G C150U C169A is lower in reverse-splicing fitness: 0.0121 for the first, 0.0111 for the second.

First: C82G A111C A120G C150U C169A U176A
Second: C82G A111C A120G C150U C169A U176C
The reverse-splicing fitness of the first is higher: 0.0141 for the first, 0.0135 for the second.

Going from C82G A111C A120G C150U C169A U176G to C82G A111C A120G C150U C169G, the reverse-splicing fitness rises from 0.00607 to 0.0113.

Compared with C82G A111C A120G C150U C169G U176A, C82G A111C A120G C150U C169G U176C is higher in reverse-splicing fitness: 0.0141 for the first, 0.0187 for the second.

First: C82G A111C A120G C150U C169G U176G
Second: C82G A111C A120G C150U C169U
The reverse-splicing fitness of the first is lower: 0.00537 for the first, 0.00939 for the second.

Going from C82G A111C A120G C150U C169U U176A to C82G A111C A120G C150U C169U U176C, the reverse-splicing fitness rises from 0.0146 to 0.0156.

Compared with C82G A111C A120G C150U C169U U176G, C82G A111C A120G C150U U176A is higher in reverse-splicing fitness: 0.00546 for the first, 0.0119 for the second.

First: C82G A111C A120G C150U U176C
Second: C82G A111C A120G C150U U176G
The reverse-splicing fitness of the first is higher: 0.0217 for the first, 0.00715 for the second.

First: C82G A111C A120G C169A
Second: C82G A111C A120G C169A U176A
The reverse-splicing fitness of the first is lower: 0.0107 for the first, 0.016 for the second.

Going from C82G A111C A120G C169A U176C to C82G A111C A120G C169A U176G, the reverse-splicing fitness falls from 0.0206 to 0.00442.

First: C82G A111C A120G C169G
Second: C82G A111C A120G C169G U176A
The reverse-splicing fitness of the first is lower: 0.0132 for the first, 0.0184 for the second.

Going from C82G A111C A120G C169G U176C to C82G A111C A120G C169G U176G, the reverse-splicing fitness falls from 0.0224 to 0.0044.

First: C82G A111C A120G C169U
Second: C82G A111C A120G C169U U176A
The reverse-splicing fitness of the first is lower: 0.00963 for the first, 0.0181 for the second.

Going from C82G A111C A120G C169U U176C to C82G A111C A120G C169U U176G, the reverse-splicing fitness falls from 0.0141 to 0.00516.

First: C82G A111C A120G U176A
Second: C82G A111C A120G U176C
The reverse-splicing fitness of the first is lower: 0.0162 for the first, 0.0226 for the second.

Compared with C82G A111C A120G U176G, C82G A111C A120U is higher in reverse-splicing fitness: 0.00753 for the first, 0.0509 for the second.

First: C82G A111C A120U A145C
Second: C82G A111C A120U A145C C150A
The reverse-splicing fitness of the first is higher: 0.0432 for the first, 0.00458 for the second.

Compared with C82G A111C A120U A145C C150A C169A, C82G A111C A120U A145C C150A C169A U176A is higher in reverse-splicing fitness: 0.00203 for the first, 0.00209 for the second.

Going from C82G A111C A120U A145C C150A C169A U176C to C82G A111C A120U A145C C150A C169A U176G, the reverse-splicing fitness rises from 0.00225 to 0.00281.

Compared with C82G A111C A120U A145C C150A C169G, C82G A111C A120U A145C C150A C169G U176A is lower in reverse-splicing fitness: 0.00326 for the first, 0.00319 for the second.

Going from C82G A111C A120U A145C C150A C169G U176C to C82G A111C A120U A145C C150A C169G U176G, the reverse-splicing fitness falls from 0.00286 to 0.00223.

First: C82G A111C A120U A145C C150A C169U
Second: C82G A111C A120U A145C C150A C169U U176A
The reverse-splicing fitness of the first is higher: 0.00329 for the first, 0.00291 for the second.

Going from C82G A111C A120U A145C C150A C169U U176C to C82G A111C A120U A145C C150A C169U U176G, the reverse-splicing fitness falls from 0.00331 to 0.00237.

Compared with C82G A111C A120U A145C C150A U176A, C82G A111C A120U A145C C150A U176C is lower in reverse-splicing fitness: 0.00374 for the first, 0.00361 for the second.

Compared with C82G A111C A120U A145C C150A U176G, C82G A111C A120U A145C C150G is higher in reverse-splicing fitness: 0.00247 for the first, 0.008 for the second.
